Target: Progesterone receptor isoform B (PRB) (Homo sapiens, UniProt P06401 1-933)
Assay: EMSA

Progesterone receptor isoform B (PRB), sequence (P06401 whole entry, canonical isoform): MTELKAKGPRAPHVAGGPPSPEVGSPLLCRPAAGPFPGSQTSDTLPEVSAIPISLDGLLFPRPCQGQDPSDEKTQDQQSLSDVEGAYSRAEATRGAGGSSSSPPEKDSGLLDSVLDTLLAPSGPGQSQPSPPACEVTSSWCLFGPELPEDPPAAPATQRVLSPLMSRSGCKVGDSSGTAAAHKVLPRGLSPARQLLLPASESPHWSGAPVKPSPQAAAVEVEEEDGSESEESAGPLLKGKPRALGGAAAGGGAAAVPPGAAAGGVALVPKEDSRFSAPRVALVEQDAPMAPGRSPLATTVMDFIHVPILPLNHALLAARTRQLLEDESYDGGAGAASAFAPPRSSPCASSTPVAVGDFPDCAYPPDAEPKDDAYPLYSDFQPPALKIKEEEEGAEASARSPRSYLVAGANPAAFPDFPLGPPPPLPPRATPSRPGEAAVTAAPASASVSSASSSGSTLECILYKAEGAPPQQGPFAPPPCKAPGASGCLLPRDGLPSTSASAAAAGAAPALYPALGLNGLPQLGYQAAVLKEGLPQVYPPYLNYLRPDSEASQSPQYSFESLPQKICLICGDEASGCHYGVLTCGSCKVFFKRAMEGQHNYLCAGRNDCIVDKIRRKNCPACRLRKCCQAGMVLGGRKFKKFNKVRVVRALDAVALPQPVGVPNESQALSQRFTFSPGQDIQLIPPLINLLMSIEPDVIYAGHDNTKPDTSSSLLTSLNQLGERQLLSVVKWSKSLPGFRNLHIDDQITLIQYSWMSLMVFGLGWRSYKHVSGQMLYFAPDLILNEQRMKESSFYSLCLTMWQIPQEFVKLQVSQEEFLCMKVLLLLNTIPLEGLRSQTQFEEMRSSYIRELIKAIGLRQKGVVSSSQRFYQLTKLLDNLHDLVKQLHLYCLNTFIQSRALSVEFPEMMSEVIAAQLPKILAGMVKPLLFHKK

B1: PRE (dsDNA)
DNA 1: GTTACAAACTGTTCT
DNA 2: AGAACAGTTTGTAAC
binding result: binds
